Measured values from publication PMC3765318, “An efficient protocol for the purification and labeling of entire yeast septin rods from E.coli for quantitative in vitro experimentation” (BMC Biotechnology, 2013).

Experiments:
[1] = molecular target: T1, SNAP tagged septin rod labeled with BG-biotin (S. cerevisiae, UniProt P32458 1-415; P32468 1-407; P32457 1-520; P25342 1-322, biotin, covalently attached with BG-Biotin to the SNAP tag); assay: SPR; Biacore X100; biotinylated SNAP tagged septin rods captured (about 100 RU) on an anti-biotin antibody coated CM5 chip; Bni5 0-1600 nM as analyte in MSP buffer (10 mM MES, 150 mM NaCl, 0.05% Tween 20, pH 7.4); KD from the analyte response plotted against concentration; details: both partners purified
T1 construct: Cdc11, S. cerevisiae septin; ORF amplified by PCR from genomic DNA; Cdc12, S. cerevisiae septin; Cdc3, S. cerevisiae septin; Cdc10, S. cerevisiae septin; calculated molecular weight 432.5 kDa; also called septin rods; biotinylated septin rods; source: E. coli BL21(DE3), four subunits co-expressed, purified (IMAC, Resource Q anion exchange), labeled with BG-Biotin; not shown: S tag, N-terminal, …

[2] = molecular target: T1, SNAP tagged septin rod labeled with …; assay: SPR; same dataset as a8; sensograms fitted with a two state reaction model (to compensate for background binding of Bni5 to the antibody-coated surface); contact 120 or 180 s, dissociation 600 s; details: both partners purified
[3] = molecular target: the molecule itself; assay: co-sedimentation + other: fluorescence microscopy; 2 uM SNAP tagged rods labeled with BG-TMR, dialyzed into low salt buffer (50 mM NaCl, 50-200 mM Tris-HCl pH 8.0), 16 h at 4 C, pelleted at 100,000 g, on poly-L-lysine slides

Kd [1] [nM] | Kd [2] [nM] | koff [2] [s⁻¹] | kon [2] [M⁻¹ s⁻¹] | Binder | binding result [3]
313 | 253 | 0.037 | 51000 | Bni5 (natural protein, S. cerevisiae, UniProt P53890 1-448, looked up, Bni5, S. cerevisiae; BNI5 PCR amplified from genomic DNA, cloned in a pET15b derived expression plasmid; primers are in Additional file 1; also called purified Bni5 (analyte protein); 6his tagged Bni5; source: E. coli BL21(DE3), purified (IMAC, size exclusion chromatography)) MGLDQDKIKKRLSQIEIDINQMNQMIDENLQLVEPAEDEAVEDNVKDTGVVDAVKVAETALFSGNDGADSNPGDSAQVEEHKTAQVHIPTENEANKSTDDPSQLSVTQPFIAKEQITHTAIAIGDSYNSFVANSAGNEKAKDSCTENKEDGTVNIDQNRGEADVEIIENNDDEWEDEKSDVEEGRVDKGTEENSEIESFKSPMPQNNTLGGENKLDAELVLDKFSSANKDLDIQPQTIVVGGDNEYNHESSRLADQTPHDDNSENCPNRSGGSTPLDSQTKIFIPKKNSKEDGTNINHFNSDGDGQKKMANFETRRPTNPFRVISVSSNSNSRNGSRKSSLNKYDSPVSSPITSASELGSIAKLEKRHDYLSMKCIKLQKEIDYLNKMNAQGSLSMEDGKRLHRAVVKLQEYLDKKTKEKYEVGVLLSRHLRKQIDRGENGQFWIGTK | 
 |  |  |  | SNAP tagged septin rod labeled with BG-TMR (complex, S. cerevisiae, tetramethylrhodamine (TMR), covalently attached with BG-TMR to the SNAP tag, Cdc11, S. cerevisiae septin; ORF amplified by PCR from genomic DNA; Cdc12, S. cerevisiae septin; Cdc3, S. cerevisiae septin; Cdc10, S. cerevisiae septin; also called SNAP tagged, TMR labeled septin filaments; TMR labeled septin filaments; source: E. coli BL21(DE3), four subunits co-expressed, purified (IMAC, Resource Q anion exchange), labeled with BG-TMR; copies: 2 + 2 + 2 + 2) chain 1: MSGIIDASSALRKRKHLKRGITFTVMIVGQSGSGRSTFINTLCGQQVVDTSTTILLPTDTSTEIDLQLREETVELEDDEGVKIQLNIIDTPGFGDSLDNSPSFEIISDYIRHQYDEILLEESRVRRNPRFKDGRVHCCLYLINPTGHGLKEIDVEFIRQLGSLVNIIPVISKSDSLTRDELKLNKKLIMEDIDRWNLPIYNFPFDEDEISDEDYETNMYLRTLLPFAIIGSNEVYEMGGDVGTIRGRKYPWGILDVEDSSISDFVILRNALLISHLHDLKNYTHEILYERYRTEALSGESVAAESIRPNLTKLNGSSSSSTTTRRNTNPFKQSNNINNDVLNPASDMHGQSTGENNETYMTREEQIRLEEERLKAFEERVQQELLLKRQELLQREKELREIEARLEKEAKIKQEE chain 2: MSAATATAAPVPPPVGISNLPNQRYKIVNEEGGTFTVMLCGESGLGKTTFINTLFQTVLKRADGQQHRQEPIRKTVEIDITRALLEEKHFELRVNVIDTPGFGDNVNNNKAWQPLVDFIDDQHDSYMRQEQQPYRTKKFDLRVHAVLYFIRPTGHGLKPIDIETMKRLSTRANLIPVIAKADTLTAQELQQFKSRIRQVIEAQEIRIFTPPLDADSKEDAKSGSNPDSAAVEHARQLIEAMPFAIVGSEKKFDNGQGTQVVARKYPWGLVEIENDSHCDFRKLRALLLRTYLLDLISTTQEMHYETYRRLRLEGHENTGEGNEDFTLPAIAPARKLSHNPRYKEEENALKKYFTDQVKAEEQRFRQWEQNIVNERIRLNGDLEEIQGKVKKLEEQVKSLQVKKSHLK chain 3: MSLKEEQVSIKQDPEQEERQHDQFNDVQIKQESQDHDGVDSQYTNGTQNDDSERFEAAESDVKVEPGLGMGITSSQSEKGQVLPDQPEIKFIRRQINGYVGFANLPKQWHRRSIKNGFSFNLLCVGPDGIGKTTLMKTLFNNDDIEANLVKDYEEELANDQEEEEGQGEGHENQSQEQRHKVKIKSYESVIEENGVKLNLNVIDTEGFGDFLNNDQKSWDPIIKEIDSRFDQYLDAENKINRHSINDKRIHACLYFIEPTGHYLKPLDLKFMQSVYEKCNLIPVIAKSDILTDEEILSFKKTIMNQLIQSNIELFKPPIYSNDDAENSHLSERLFSSLPYAVIGSNDIVENYSGNQVRGRSYPWGVIEVDNDNHSDFNLLKNLLIKQFMEELKERTSKILYENYRSSKLAKLGIKQDNSVFKEFDPISKQQEEKTLHEAKLAKLEIEMKTVFQQKVSEKEKKLQKSETELFARHKEMKEKLTKQLKALEDKKKQLELSINSASPNVNHSPVPTKKKGFLR chain 4: MDPLSSVQPASYVGFDTITNQIEHRLLKKGFQFNIMVVGQSGLGKSTLINTLFASHLIDSATGDDISALPVTKTTEMKISTHTLVEDRVRLNINVIDTPGFGDFIDNSKAWEPIVKYIKEQHSQYLRKELTAQRERFITDTRVHAILYFLQPNGKELSRLDVEALKRLTEIANVIPVIGKSDTLTLDERTEFRELIQNEFEKYNFKIYPYDSEELTDEELELNRSVRSIIPFAVVGSENEIEINGETFRGRKTRWSAINVEDINQCDFVYLREFLIRTHLQDLIETTSYIHYEGFRARQLIALKENANSRSSAHMSSNAIQR | binds
